Laboratory results from US20240059769A1 (BIOLOJIC DESIGN, published 2024).
Read-outs that look alike come from different tables or passages of the source.

How the values were obtained:
recombinant human IL-13 [1] = target: T1, recombinant human IL-13 (human, UniProt P35225 35-146); assay: SPR
T1 construct: also called rh-IL-13; hIL-13

human TSLP [2] = target: T2, human TSLP (human, UniProt Q969D9 29-159); assay: cell-based or functional assay
recombinant human IL-13 [3] = target: T1, recombinant human IL-13; assay: cell-based or functional assay
hTSLP-His [4] = target: T3, hTSLP-His (human, UniProt Q969D9 29-159, limits assumed); assay: competition ELISA, 7 nM TSLP-His pre-incubated with antibody; competitor Tezepelumab coated
T3 construct: bought; also called hTSLP (ACROBiosystems TSP-H52Hb); not shown: His tag

hTSLP-His [5] = target: T3, hTSLP-His; assay: cell-based or functional assay
human TSLP [6] = target: T2, human TSLP; assay: SPR
[7] = target: T4, cynomolgus monkey (cyno) TSLP (cynomolgus monkey, UniProt A0A7N9CAT7 29-159); assay: SPR
T4 construct: also called cTSLP; cynomolgus TSLP

[8] = target: T5, recombinant cynomolgus monkey IL-13 (cynomolgus monkey, UniProt Q0PW92 21-132); assay: SPR
T5 construct: bought; also called rc-IL-13; cIL-13

hTSLP-His [9] = target: T3, hTSLP-His; assay: competition ELISA: antibody titrated and pre-incubated with 7 nM TSLP-His, then on a plate coated with 33.001 (Tezepelumab), anti-His detection; row head on the sheet reads EC50, unit from the axis
recombinant human IL-13 [10] = target: T1, recombinant human IL-13; assay: cell-based or functional assay; remark: listed apart in the source
hTSLP-His [11] = target: T3, hTSLP-His; assay: competition ELISA: antibody titrated and pre-incubated with 7 nM TSLP-His, then on a plate coated with 33.001 (Tezepelumab), anti-His detection; row head on the sheet reads EC50, unit from the axis; remark: listed apart in the source
hTSLP-His [12] = target: T3, hTSLP-His; assay: as above; remark: listed apart in the source
hIL-13-His = hIL-13-His (human, UniProt P35225 35-146, limits assumed); assay: cell-based or functional assay
hTSLP-His [13] = target: T3, hTSLP-His; assay: cell-based or functional assay; remark: listed apart in the source
recombinant human IL-13 [14] = target: T1, recombinant human IL-13; assay: SPR (Biacore T200), antibody captured, hIL-13 as analyte 0.35-5.93 nM
human TSLP [15] = target: T2, human TSLP; assay: SPR; remark: listed apart in the source
recombinant human IL-13 [16] = target: T1, recombinant human IL-13; assay: SPR; remark: listed apart in the source
human TSLP [17] = target: T2, human TSLP; assay: SPR (Biacore T200), antibody captured, hTSLP as analyte 0.231-5.926 nM
[18] = target: T4, cynomolgus monkey (cyno) TSLP; assay: SPR; remark: listed apart in the source
[19] = target: T5, recombinant cynomolgus monkey IL-13; assay: SPR; remark: listed apart in the source

T4 sequence (A0A7N9CAT7 entry or part of it): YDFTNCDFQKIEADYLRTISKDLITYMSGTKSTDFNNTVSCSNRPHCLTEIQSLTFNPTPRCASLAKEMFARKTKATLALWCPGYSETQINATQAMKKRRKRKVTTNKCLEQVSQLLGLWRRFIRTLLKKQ
T5 sequence (Q0PW92 entry or part of it): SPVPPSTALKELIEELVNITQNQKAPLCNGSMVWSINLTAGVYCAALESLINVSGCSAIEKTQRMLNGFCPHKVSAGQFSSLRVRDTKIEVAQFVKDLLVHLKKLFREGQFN
T1 sequence (P35225 35-146 limits assumed): as the sequence (Q0PW92 entry or part of it) above, with S1G, K10R, V42M, N67S, R83H, V100L counted along it
Sequence of hIL-13-His (P35225 35-146 limits assumed): as the sequence (Q0PW92 entry or part of it) above, with S1G, K10R, V42M, N67S, R83H, V100L counted along it

Binder	Kd (recombinant human IL-13 [1])	koff (recombinant human IL-13 [1])	kon (recombinant human IL-13 [1])	IC50 TARC (human TSLP [2])	IC50 CD23 (recombinant human IL-13 [3])	IC50 (hTSLP-His [4])	IC50 [pM], STAT5 phosphorylation inhibition in MUTZ5 cells (hTSLP-His [5])	Kd (human TSLP [6])	koff (human TSLP [6])	kon (human TSLP [6])	IC50 (hTSLP-His [9])	HEK-IL-13 [nM] (IC50, STAT6 reporter) (recombinant human IL-13 [10])	IC50 (hTSLP-His [11])	other results
BDG38.075 (antibody, V domains shown, IgG1) VH: QMQLVESGGGVVQPGRSLRLSCAASGFAFRTYGMHWVRQAPGKGLEWVAVIWYDGSATHYADSVKGRFTITRDNSKNTLNLQMNSLRAEDTAVYYCVRAPQWYLSAEAFDLWGQGTMVTVSS VL: SYVLTQPPSVSVAPGETATITCGGNLIGAYLVHWYQQKPGQAPVLVIYDDVDRPARIPERFSGSNSGNTATLTISRVEAGDEADYYCQVWDHDTNTMVFGGGTKLTVL	0.0318 nM	0.000547 s⁻¹	1.72e+07 M⁻¹ s⁻¹	4.17 nM	0.0975 nM	3.94 nM	43.9 pM	0.012 nM	2.38e-05 s⁻¹	1.98e+06 M⁻¹ s⁻¹	3.39 nM	0.0691 nM	–	Kd [7]: 0.00279 nM; koff [7]: 7.59e-06 s⁻¹; kon [7]: 2.72e+06 M⁻¹ s⁻¹; Kd [8]: 0.454 nM; koff [8]: 0.0156 s⁻¹; kon [8]: 3.45e+07 M⁻¹ s⁻¹
BDG38.082 (antibody, V domains shown, IgG1) VH: QMQLVESGGGVVQPGRSLRLSCAASGFAFRTYGMHWVRQAPGKGLEWVAVIWDDGSNTHYADSVKGRFTITRDNSKNTLNLQMNSLRAEDTAVYYCVRAPQWYLTAEAFDLWGQGTMVTVSS VL: SYVLTQPPSVSVAPGETATITCGGNMIGGYLVHWYQQKPGQAPVLVIYDDVDRPDRIPERFSGSNSGNTATLTISRVEAGDEADYYCQVWDHDTNQVVFGGGTKLTVL	0.114 nM	0.000956 s⁻¹	8.41e+06 M⁻¹ s⁻¹	1.58 nM	0.0391 nM	2.7 nM	–	0.0616 nM	0.000158 s⁻¹	2.56e+06 M⁻¹ s⁻¹	–	0.043 nM	2.73 nM	–
BDG38.077 (antibody, V domains shown, IgG1) VH: QMQLVESGGGVVQPGRSLTLSCAASGFAFRTYGMHWVRQAPGKGLEWVGVIWYDGSATHYADSVKGRFTITRDNSKNTLNLQMNSLRAEDTAVYYCVRAPQWYLTAEAFDLWGQGTMVTVSS VL: SYVLTQPPSVSVAPGETATITCGGALIGSRLVHWYQQKPGQAPVLVIYDDSDRPSRIPERFSGSNIGNTATLTISDVEAGDEADYYCQVWDHSSNTYVFGGGTKLTVL	0.0325 nM	0.000539 s⁻¹	1.66e+07 M⁻¹ s⁻¹	2.47 nM	0.0124 nM	8.47 nM	304 pM	0.166 nM	0.000144 s⁻¹	869000 M⁻¹ s⁻¹	8.48 nM	0.0505 nM	–	–
BDG38.078 (antibody, V domains shown, IgG1) VH: QMQLVESGGGVVQPGRSLRLSCAASGFEFRTYGMHWVRQAPGKGLEWLGVIWYDGSNTHYADSVKGRFTITRDNSKNTLNLQMNSLRVEDTAVYYCVRAPQWYLTAEAFDLWGQGTMVTVSS VL: SYILTQPPSVSVAPGETATITCGGNLIGARLVHWYQQKPGQAPVLVIYDDSDRPSRIPERFSGSNIGNTATLTIERVEAGDEADYYCQVWDYYSDHMVFGGGTKLTVL	0.0857 nM	0.000203 s⁻¹	2.37e+06 M⁻¹ s⁻¹	6.52 nM	0.125 nM	4.3 nM	338 pM	0.000231 nM	2.95e-07 s⁻¹	1.28e+06 M⁻¹ s⁻¹	–	0.0508 nM	–	IC50 (hTSLP-His [12]): 4.3 nM
BDG38.083 (antibody, V domains shown, IgG1) VH: QMQLVESGGGVVQPGRSLTLSCAASGFEFRTYGMHWVRQAPGKGLEWVGVIWDDGSNTHYADSVKGRFTITRDNSKNTLNLQMNSLRAEDTAVYYCARAPQWYLTAEAFDLWGQGTMVTVSS VL: SYILTQPPSVSVAPGQTATITCGGNLIGAKLVHWYQQKPGQAPVLVIYDDSDRPSRIPERFSGSNIGNTATLTISDVEEGDEADYYCQVWDYSSDTMVFGGGTKLTVL	0.0565 nM	0.000401 s⁻¹	7.09e+06 M⁻¹ s⁻¹	11.4 nM	0.0215 nM	3.33 nM	–	0.0983 nM	0.000241 s⁻¹	2.45e+06 M⁻¹ s⁻¹	–	0.0419 nM	3.33 nM	–
Tralokinumab (antibody, V domains shown) VH: QVQLVQSGAEVKKPGASVKVSCKASGYTFTNYGLSWVRQAPGQGLEWMGWISANNGDTNYGQEFQGRVTMTTDTSTSTAYMELRSLRSDDTAVYYCARDSSSSWARWFFDLWGRGTLVTVSS VL: SYVLTQPPSVSVAPGKTARITCGGNIIGSKLVHWYQQKPGQAPVLVIYDDGDRPSGIPERFSGSNSGNTATLTISRVEAGDEADYYCQVWDTGSDPVVFGGGTKLTVL	–	–	–	–	–	–	–	–	–	–	–	–	–	IC50, CD23 expression on monocytes (hPBMC, 0.7 nM IL-13) (hIL-13-His): 0.91 nM
Lebrikizumab (antibody, V domains shown) VH: QVTLRESGPALVKPTQTLTLTCTVSGFSLSAYSVNWIRQPPGKALEWLAMIWGDGKIVYNSALKSRLTISKDTSKNQVVLTMTNMDPVDTATYYCAGDGYYPYAMDNWGQGSLVTVSS VL: DIVMTQSPDSLSVSLGERATINCRASKSVDSYGNSFMHWYQQKPGQPPKLLIYLASNLESGVPDRFSGSGSGTDFTLTISSLQAEDVAVYYCQQNNEDPRTFGGGTKVEIKR	–	–	–	–	–	–	–	–	–	–	–	–	–	IC50, CD23 expression on monocytes (hPBMC, 0.7 nM IL-13) (hIL-13-His): 0.38 nM
BDG38.080 (antibody, V domains shown, IgG1) VH: QMQLVESGGGVVQPGRSLRLSCAASGFAFRTYGMHWVRQAPGKGLEWVAVIWYDGSATHYADSVKGRFTITRDNSKNTLNLQMNSLRAEDTAVYYCVRAPQWYLSAEAFDLWGQGTMVTVSS VL: SYVLTQPPSVSVAPGETATITCGGNLIGAYLVHWYQQKPGQAPVLVIYDDSDRPDRIPERFSGSNSGNTATLTISRVEAGDEADYYCQVWDHNTNHMVFGGGTKLTVL	0.0716 nM	0.00114 s⁻¹	1.59e+07 M⁻¹ s⁻¹	0.79 nM	0.201 nM	3.27 nM	34.3 pM	0.00722 nM	1.81e-05 s⁻¹	2.5e+06 M⁻¹ s⁻¹	–	0.0592 nM	–	IC50 (hTSLP-His [12]): 3.27 nM
BDG38.081 (antibody, V domains shown, IgG1) VH: QMQLVESGGGVVQPGRSLRLSCAASGFAFRTYGMHWVRQAPGKGLEWVAVIWDDGSNTHYADSVKGRFTITRDNSKNTLNLQMNSLRAEDTAVYYCVRAPQWYLTAEAFDLWGQGTMVTVSS VL: SYVLTQPPSVSVAPGQTARITCGGNMIGAYLVHWYQQKPGQAPLLVIYDDVDRPDRIPERFSGSNSGNTATLTISRVEAGDEADYYCQVWDHNTQQMVFGGGTKLTVL	0.0509 nM	0.000872 s⁻¹	1.71e+07 M⁻¹ s⁻¹	5.93 nM	0.0339 nM	2.2 nM	38.7 pM	0.0692 nM	0.000125 s⁻¹	1.81e+06 M⁻¹ s⁻¹	–	0.0483 nM	2.21 nM	Kd [7]: 0.00487 nM; koff [7]: 4.36e-05 s⁻¹; kon [7]: 8.96e+06 M⁻¹ s⁻¹; Kd [8]: 0.844 nM; koff [8]: 0.00675 s⁻¹; kon [8]: 8e+06 M⁻¹ s⁻¹
BDG38.074 (antibody, V domains shown, also called BDG38.74) VH: QMQLVESGGGVVQPGRSLRLSCAASGFAFRTYGMHWVRQAPGKGLEWVAVIWDDGSNTHYADSVKGRFTITRDNSKNTLNLQMNSLRAEDTAVYYCVRAPQWYLTAEAFDLWGQGTMVTVSS VL: SYVLTQPPSVSVAPGQTATITCGGNMIGAYLVHWYQQKPGQAPLLVVYDDVDRPNRIPERFSGSNSGNTATLTISRVEAGDEADYYCQVWDHNTDKMVFGGGTKLTVL	–	–	–	2.77 nM	0.158 nM	3.66 nM	46.7 pM	–	–	–	3.66 nM	0.0241 nM	–	IC50, pSTAT5 in MUTZ-5 cell line (hTSLP-His [13]): ~35 pM; Kd (recombinant human IL-13 [14]): 0.0295 nM; koff (recombinant human IL-13 [14]): 0.000249 s⁻¹; kon (recombinant human IL-13 [14]): 8.43e+06 M⁻¹ s⁻¹; Kd (human TSLP [15]): 0.00334 nM; koff (human TSLP [15]): 5.05e-05 s⁻¹; kon (human TSLP [15]): 1.51e+07 M⁻¹ s⁻¹; Kd (recombinant human IL-13 [16]): 0.0295 nM; koff (recombinant human IL-13 [16]): 0.000249 s⁻¹; kon (recombinant human IL-13 [16]): 8.43e+06 M⁻¹ s⁻¹; Kd (human TSLP [17]): 0.00334 nM; koff (human TSLP [17]): 5.05e-05 s⁻¹; kon (human TSLP [17]): 1.51e+07 M⁻¹ s⁻¹; Kd [18]: 0.00416 nM; koff [18]: 4.6e-05 s⁻¹; kon [18]: 1.11e+07 M⁻¹ s⁻¹; Kd [19]: 0.733 nM; koff [19]: 0.00644 s⁻¹; kon [19]: 8.78e+06 M⁻¹ s⁻¹
